{
  "source": "patent US20210348144",
  "about": "(published 2021)",
  "key": {"[1]": {"molecular_target": "T1, LbCas12a K1121D (Lachnospiraceae bacterium ND2006)", "test": "cell_activity; WT 7.70; 50 nM RNP, HEK293, T7EI 48 h; PAM of site not stated"}, "[2]": {"molecular_target": "T2, LbCas12a G146R (Lachnospiraceae bacterium ND2006)", "test": "cell_activity; WT 7.70; 50 nM RNP, HEK293, T7EI 48 h; PAM of site not stated"}, "[3]": {"molecular_target": "T3, LbCas12a E795Q (Lachnospiraceae bacterium ND2006)", "test": "cell_activity; WT 7.70; 50 nM RNP, HEK293, T7EI 48 h; PAM of site not stated"}, "[4]": {"molecular_target": "T4, LbCas12a E981V (Lachnospiraceae bacterium ND2006)", "test": "cell_activity; WT 7.70; 50 nM RNP, HEK293, T7EI 48 h; PAM of site not stated"}, "[5]": {"molecular_target": "T5, LbCas12a W890A (Lachnospiraceae bacterium ND2006)", "test": "cell_activity; WT 7.70; 50 nM RNP, HEK293, T7EI 48 h; PAM of site not stated"}, "[6]": {"molecular_target": "T6, LbCas12a T152K (Lachnospiraceae bacterium ND2006)", "test": "cell_activity; WT 7.70; 50 nM RNP, HEK293, T7EI 48 h; PAM of site not stated"}, "[7]": {"molecular_target": "T7, LbCas12a G146R/R182V/E795Q (RVQ) (Lachnospiraceae bacterium ND2006)", "test": "cell_activity; WT 7.70; 50 nM RNP, HEK293, T7EI 48 h; PAM of site not stated"}, "[8]": {"molecular_target": "T8, LbCas12a R182V (Lachnospiraceae bacterium ND2006)", "test": "cell_activity; WT 7.70; 50 nM RNP, HEK293, T7EI 48 h; PAM of site not stated"}, "[9]": {"molecular_target": "T9, LbCas12a S1020E (Lachnospiraceae bacterium ND2006)", "test": "cell_activity; WT 7.70; 50 nM RNP, HEK293, T7EI 48 h; PAM of site not stated"}, "[10]": {"molecular_target": "T10, LbCas12a P799V (Lachnospiraceae bacterium ND2006)", "test": "cell_activity; WT 7.70; 50 nM RNP, HEK293, T7EI 48 h; PAM of site not stated"}, "[11]": {"molecular_target": "T1, LbCas12a K1121D", "test": "cell_activity; WT 15.77; 50 nM RNP, HEK293, T7EI 48 h; PAM of site not stated"}, "[12]": {"molecular_target": "T2, LbCas12a G146R", "test": "cell_activity; WT 15.77; 50 nM RNP, HEK293, T7EI 48 h; PAM of site not stated"}, "[13]": {"molecular_target": "T3, LbCas12a E795Q", "test": "cell_activity; WT 15.77; 50 nM RNP, HEK293, T7EI 48 h; PAM of site not stated"}, "[14]": {"molecular_target": "T4, LbCas12a E981V", "test": "cell_activity; WT 15.77; 50 nM RNP, HEK293, T7EI 48 h; PAM of site not stated"}, "[15]": {"molecular_target": "T5, LbCas12a W890A", "test": "cell_activity; WT 15.77; 50 nM RNP, HEK293, T7EI 48 h; PAM of site not stated"}, "[16]": {"molecular_target": "T6, LbCas12a T152K", "test": "cell_activity; WT 15.77; 50 nM RNP, HEK293, T7EI 48 h; PAM of site not stated"}, "[17]": {"molecular_target": "T7, LbCas12a G146R/R182V/E795Q (RVQ)", "test": "cell_activity; WT 15.77; 50 nM RNP, HEK293, T7EI 48 h; PAM of site not stated"}, "[18]": {"molecular_target": "T8, LbCas12a R182V", "test": "cell_activity; WT 15.77; 50 nM RNP, HEK293, T7EI 48 h; PAM of site not stated"}, "[19]": {"molecular_target": "T9, LbCas12a S1020E", "test": "cell_activity; WT 15.77; 50 nM RNP, HEK293, T7EI 48 h; PAM of site not stated"}, "[20]": {"molecular_target": "T10, LbCas12a P799V", "test": "cell_activity; WT 15.77; 50 nM RNP, HEK293, T7EI 48 h; PAM of site not stated"}},
  "data": [
    {"binder": "crRNA-2 HPRT 38094-S-23 ; HPRT 38094-S protospacer (DNA equivalent of crRNA-2 spacer) (ssRNA ; dsDNA) RNA: UAAUUUCUACUAAGUGUAGAUAUAGUCUUUCCUUGGGUGUGUUA DNA 1: ATAGTCTTTCCTTGGGTGTGTTA DNA 2: TAACACACCCAAGGAAAGACTAT", "values": [
      {"measurement": "activity", "setting": "[1]", "result": 3.65, "unit": "% editing"},
      {"measurement": "activity", "setting": "[2]", "result": 16.2, "unit": "% editing"},
      {"measurement": "activity", "setting": "[3]", "result": 9.77, "unit": "% editing"},
      {"measurement": "activity", "setting": "[4]", "result": 13.8, "unit": "% editing"},
      {"measurement": "activity", "setting": "[5]", "result": 3.8, "unit": "% editing"},
      {"measurement": "activity", "setting": "[6]", "result": 20.9, "unit": "% editing"},
      {"measurement": "activity", "setting": "[7]", "result": 32.8, "unit": "% editing"},
      {"measurement": "activity", "setting": "[8]", "result": 10.4, "unit": "% editing"},
      {"measurement": "activity", "setting": "[9]", "result": 4.27, "unit": "% editing"},
      {"measurement": "activity", "setting": "[10]", "result": 16.7, "unit": "% editing"}
    ]},
    {"binder": "crRNA-4 HPRT 38486-S-23 ; HPRT 38486-S protospacer (DNA equivalent of crRNA-4 spacer) (ssRNA ; dsDNA) RNA: UAAUUUCUACUAAGUGUAGAUUUGUAGGAUAUGCCCUUGACUAU DNA 1: TTGTAGGATATGCCCTTGACTAT DNA 2: ATAGTCAAGGGCATATCCTACAA", "values": [
      {"measurement": "activity", "setting": "[11]", "result": 6.87, "unit": "% editing"},
      {"measurement": "activity", "setting": "[12]", "result": 32.2, "unit": "% editing"},
      {"measurement": "activity", "setting": "[13]", "result": 26.8, "unit": "% editing"},
      {"measurement": "activity", "setting": "[14]", "result": 26.4, "unit": "% editing"},
      {"measurement": "activity", "setting": "[15]", "result": 4.27, "unit": "% editing"},
      {"measurement": "activity", "setting": "[16]", "result": 18.6, "unit": "% editing"},
      {"measurement": "activity", "setting": "[17]", "result": 51.5, "unit": "% editing"},
      {"measurement": "activity", "setting": "[18]", "result": 29.1, "unit": "% editing"},
      {"measurement": "activity", "setting": "[19]", "result": 7.6, "unit": "% editing"},
      {"measurement": "activity", "setting": "[20]", "result": 30.7, "unit": "% editing"}
    ]}
  ]
}
